The values below come from paper PMC5501727, “The Structure of the R2TP Complex Defines a Platform for Recruiting Diverse Client Proteins to the HSP90 Molecular Chaperone System” (Structure(London, England:1993), 2017).

For one experiment, the target named is T1, Tah1p-Pih1p complex (yeast, UniProt P25638 1-111; P38768 1-344).
T1 construct: Tah1p, TPR domain protein of yeast R2TP; gene cloned into a modified pET28b (NdeI/BamHI) giving 2xStrep-tagged Tah1p; Pih1p of yeast R2TP; PIH1P gene cloned into p3E (modified pGEX6p) with NdeI and HindIII; Heterodimer of 53 kDa by sedimentation velocity; also called TP; 2xStrep-Tah1p-Pih1p
T1 sequence (looked up) 1: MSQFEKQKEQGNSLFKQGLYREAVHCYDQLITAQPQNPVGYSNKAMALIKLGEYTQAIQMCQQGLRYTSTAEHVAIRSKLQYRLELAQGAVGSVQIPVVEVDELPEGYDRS
T1 sequence (looked up) 2: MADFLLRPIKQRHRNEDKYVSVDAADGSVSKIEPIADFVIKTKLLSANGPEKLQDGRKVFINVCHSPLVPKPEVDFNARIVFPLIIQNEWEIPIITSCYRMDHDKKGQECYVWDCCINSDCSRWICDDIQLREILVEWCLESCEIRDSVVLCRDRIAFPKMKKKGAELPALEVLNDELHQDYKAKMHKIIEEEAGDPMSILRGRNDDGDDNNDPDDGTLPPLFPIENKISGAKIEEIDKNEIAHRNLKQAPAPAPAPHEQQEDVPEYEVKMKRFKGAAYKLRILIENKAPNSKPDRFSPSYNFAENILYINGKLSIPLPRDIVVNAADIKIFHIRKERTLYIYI
The experiment can be described thus: AUC; sedimentation velocity, 43,000 rpm, samples 2 to 4 μM in 20 mM HEPES pH 7.8, 140 mM NaCl, 5 mM MgCl2, 0.5 mM EDTA, 0.5 mM TCEP; TP alone, R2 alone, and R2 mixed with TP at 1:2.4 molar ratio. The following applies: both partners purified.

The target of another experiment is T2, Rvb2p (Saccharomyces cerevisiae, UniProt Q12464 1-471).
T2 construct: gene (Genscript) cloned into a modified pRSETA (containing 3X Myc-tags) with NheI and HindIII; also called Rvb2p-only complex; source: Rosetta (DE3) pLysS, co-expressed with Rvb1p, purified (Talon, gel filtration)
Described as above. As to conditions: both partners purified.

By stoichiometry N is commonly meant the number of molecules, sites or subunits per partner or assembly.

B1: Rvb1p-Rvb2p complex (hetero-hexamer) (complex, Saccharomyces cerevisiae)
chain 1: MVAISEVKENPGVNSSNSGAVTRTAAHTHIKGLGLDESGVAKRVEGGFVGQIEAREACGVIVDLIKAKKMSGRAILLAGGPSTGKTALALAISQELGPKVPFCPLVGSELYSVEVKKTETLMENFRRAIGLRIKETKEVYEGEVTELTPEDAENPLGGYGKTISHVIVGLKSAKGTKTLRLDPTIYESIQREKVSIGDVIYIEANTGAVKRVGRSDAYATEFDLETEEYVPLPKGEVHKKKEIVQDVTLHDLDVANARPQGGQDVISMMGQLLKPKKTEITEKLRQEVNKVVAKYIDQGVAELIPGVLFIDEVNMLDIEIFTYLNKALESNIAPVVVLASNRGMTTVRGTEDVISPHGVPPDLIDRLLIVRTLPYDKDEIRTIIERRATVERLQVESSALDLLATMGTETSLRYALQLLAPCGILAQTSNRKEIVVNDVNEAKLLFLDAKRSTKILETSANYL
chain 2: MSIQTSDPNETSDLKSLSLIAAHSHITGLGLDENLQPRPTSEGMVGQLQARRAAGVILKMVQNGTIAGRAVLVAGPPSTGKTALAMGVSQSLGKDVPFTAIAGSEIFSLELSKTEALTQAFRKSIGIKIKEETELIEGEVVEIQIDRSITGGHKQGKLTIKTTDMETIYELGNKMIDGLTKEKVLAGDVISIDKASGKITKLGRSFARSRDYDAMGADTRFVQCPEGELQKRKTVVHTVSLHEIDVINSRTQGFLALFTGDTGEIRSEVRDQINTKVAEWKEEGKAEIVPGVLFIDEVHMLDIECFSFINRALEDEFAPIVMMATNRGVSKTRGTNYKSPHGLPLDLLDRSIIITTKSYNEQEIKTILSIRAQEEEVELSSDALDLLTKTGVETSLRYSSNLISVAQQIAMKRKNNTVEVEDVKRAYLLFLDSARSVKYVQENESQYIDDQGNVQISIAKSADPDAMDTTE
notes: Rvb1p, AAA+ ATPase of yeast R2TP; gene (Genscript) cloned into pET28b with NdeI and BamHI; gene (Genscript) cloned into a modified pRSETA (containing 3X Myc-tags) with NheI and HindIII; also called R2; Rvb1p-Rvb2p hexamer; copies: 3 + 3
For B1, the “stoichiometry N” value in the experiment with Tah1p-Pih1p complex was 1 Rvb1p-Rvb2p hetero-hexamer per Tah1p-Pih1p complex.

B2: Rvb1p (natural protein, Saccharomyces cerevisiae, UniProt Q03940 1-463, looked up)
chain: MVAISEVKENPGVNSSNSGAVTRTAAHTHIKGLGLDESGVAKRVEGGFVGQIEAREACGVIVDLIKAKKMSGRAILLAGGPSTGKTALALAISQELGPKVPFCPLVGSELYSVEVKKTETLMENFRRAIGLRIKETKEVYEGEVTELTPEDAENPLGGYGKTISHVIVGLKSAKGTKTLRLDPTIYESIQREKVSIGDVIYIEANTGAVKRVGRSDAYATEFDLETEEYVPLPKGEVHKKKEIVQDVTLHDLDVANARPQGGQDVISMMGQLLKPKKTEITEKLRQEVNKVVAKYIDQGVAELIPGVLFIDEVNMLDIEIFTYLNKALESNIAPVVVLASNRGMTTVRGTEDVISPHGVPPDLIDRLLIVRTLPYDKDEIRTIIERRATVERLQVESSALDLLATMGTETSLRYALQLLAPCGILAQTSNRKEIVVNDVNEAKLLFLDAKRSTKILETSANYL
notes: Rvb1p, AAA+ ATPase of yeast R2TP; gene (Genscript) cloned into pET28b with NdeI and BamHI; also called Rvb1p-only complex
As for B2, the “stoichiometry N” value in the experiment with Rvb2p is 1 Rvb1p per Rvb2p (3:3).
